The results in this text go back to US20190040106A1, “USE OF HUMAN DERIVED IMMUNOSUPPRESSIVE PROTEINS AND PEPTIDES AS MEDICAMENTS” (AIMVION A/S, priority 2015, published 2019).

Bridge positions count the residues as written; N and C are the ends. Ends that are not written are not given here. Peptide text beside a SMILES is read from it. I, II: the chains in the order shown.

In the series the test system is THP-1 or HT-1080 cells. Put plainly: CellTiter-Blue Cell Viability Assay, toxicity profile of peptides. The conditions noted are these: about 20 h exposure. From the text: Here, we examined the cytotoxicity effect of peptides SG#1 to SG#17 (ID1031 to ID1047) on two human cell lines THP-1 or HT-1080 cells.
The CellTiter-Blue® Cell Viability Assay provides a homogenous, fluorometric method for estimating the number of viable cells present in multiwall plates. It uses the indicator dye resazurin to measure the metabolic capacity of cells—an indicator of cell viability. Viable cells retain the ability to reduce resazurin into resorufin, which is highly fluorescent.
The CellTiter-Blue® Reagent is a buffered solution containing highly purified resazurin. Resazurin is dark blue in color and has little intrinsic fluorescence. However, when it is reduced to resorufin, it becomes pink and highly fluorescent (579EX/584EM).
• 1. Set up 96-well assay plates containing cells in culture medium. For HT-1080, plate 1.6×10^4 cells per well on the Day 1 of the experiment. Cells are plated in 100 μl complete culture medium (DMEM) per well. • 2. On day 2, gently remove medium and add 50 μl of complete DMEM medium, add peptides and vehicle controls to appropriate wells so the final volume is 100 μl in each well. Supplement with complete DMEM where necessary. • 3. Culture cells for the desired test exposure period, about 20 h. • 4. On day 3, remove assay plates from 37° C. incubator and add 20 μl/well of CellTiter-Blue® Reagent. • 5. Shake for 10 seconds. • 6. Incubate using standard cell culture conditions for 4 hours. • 7. Shake plate for 10 seconds and record fluorescence at 560/590 nm
Toxicity profile for peptides SG#1 to SG#17 (ID1031 to ID1047). All peptides were tested at the dosage increment (10 nm, 30 nM, 100 nM, 1 μM, 10 μM, 30 μM, 100 μM and 300 μM).
(Alamar Blue is a resazurin reagent that responds to reducing activity.)
“LQNRRGLGLSILLNEECGPKK (Possibly HERV) [SG#11]”: the “Toxicity yes/no at the 300 μM conc.” value is listed as “No”.
Turning to “LQNRRGLGLSILLNEECGPGPGP [SG#17] (Possibly HERV)”, the “Toxicity yes/no at the 300 μM conc.” value was “No”.
With “LQNKKGLGLSILLNEECGPGPGP (Possibly HERV) [SG#9]”, the “Toxicity yes/no at the 300 μM conc.” value is reported as “No”.
In the case of “LQNKRGLGLSILLNEECGPGPGP (Possibly HERV) [SG#8]” it was “No”; in that of “LQNRRGLDLSILLNEECGPGPGP (Possibly HERV) [SG#3]”, “No”; in that of LQNRRGLGLSILLNEE [SG#13], “No”.
For the molecule “LQNRRGLGLSILLNEELQNRRGLC (Possibly HERV) [SG#12]”, the “Toxicity yes/no at the 300 μM conc.” value was “No”.
Regarding “LQNRRGLGLSILLNEECKKGPGPGP (Possibly HERV) [SG#1]”, the “Toxicity yes/no at the 300 μM conc.” value was “No”.
With “LNRKAIGLSILLNEECGPGPGP (Possibly HERV) [SG#6]”, the “Toxicity yes/no at the 300 μM conc.” value was “No”.
In the case of LQNRRGLGLSILLNC (Possibly HERV) [SG#4], the “Toxicity yes/no at the 300 μM conc.” value was “No”.
For the molecule LQNRRGLGLSILLNEECGPGPGP [SG#10], the “Toxicity yes/no at the 300 μM conc.” value was “No”.
In the case of `CC[C@H](C)[C@H](NC(=O)[C@H](CO)NC(=O)[C@H](CC(C)C)NC(=O)CNC(=O)[C@H](CCCCNC(=O)[C@H](CC(C)C)NC(=O)CNC(=O)[C@H](CCCNC(=N)N)NC(=O)[C@H](CCCNC(=N)N)NC(=O)[C@H](CC(N)=O)NC(=O)[C@H](CCC(N)=O)NC(=O)[C@@H](N)CC(C)C)NC(=O)[C@H](CC(C)C)NC(=O)CNC(=O)[C@H](CCCNC(=N)N)NC(=O)[C@H](CCCNC(=N)N)NC(=O)[C@H](CC(N)=O)NC(=O)[C@H](CCC(N)=O)NC(=O)[C@@H](N)CC(C)C)C(=O)N[C@@H](CC(C)C)C(=O)N[C@@H](CC(C)C)C(=O)N[C@@H](CC(N)=O)C(=O)N[C@@H](CCC(=O)O)C(=O)N[C@@H](CCC(=O)O)C(=O)O` [SG#16] (I: H-LQNRRGLKGLSILLNEE-OH / II: H-LQNRRGL; amide I:8-II:C), the “Toxicity yes/no at the 300 μM conc.” value is listed as “No”.
In the case of LQNRRGLGLSILLNEELQNRRGL [SG#14] it was “No”.
